Like-named read-outs stand apart in the source and are kept apart here. Bridge positions count the residues as written; N and C are the ends. Square brackets hold non-standard residues; d marks the D form. Ends that are not written are not given here. Peptide text beside a SMILES is read from it. I, II: the chains in the order shown. * marks the point of attachment. Dolaproine = CO[C@@H]([C@@H]1CCCN1)[C@@H](C)C(=O)O; Dil = CC[C@H](C)[C@H](NC)[C@@H](CC(=O)O)OC; X1 = C[C@@H](N*)[C@@H](O)c1ccccc1; NMeV = CN[C@H](C(=O)O)C(C)C; Mpa = O=C(O)CCS

For data set [1] the following is noted: peptide:lipid 1:300, 7 µM, 25 °C, excitation 295 nm.
Data set [2] concerns HeLa and MDA-MB-231 cells. Nature of the data set: Cell membrane integrity assay. Type of data set: cell-based, human. Particulars: HeLa and MDA-MB-231, 10 µM, 2 h, pH 7.4 or pH 5.0; mean, n=4; Figure 4.
The conditions of data set [3]: pH 7.4 to pH 5.0, POPC liposomes, peptide:lipid 1:300, 7 µM, 25 °C.
In data set [4] the test system is MDA-MB-231 cells. In words: Anti-proliferation assay. Type of data set: cell-based, human. Conditions: MDA-MB-231, 1.25 µM, 2 h treatment, MTT after 72 h; Figures 3B and 3D.
For data set [5] the following is noted: toxin derivatives conjugated to pHLIP; cited from earlier work.
Data set [6] deals with HeLa and MDA-MB-231 cells. In words: Anti-proliferation assay, statements pooled over both cell lines. Type of data set: cell-based, human. Particulars: HeLa and MDA-MB-231 (Figures 3E, 3F), 2.5 µM, 2 h treatment, MTT after 72 h.
Data set [7] has as its system HeLa cells. In words: Anti-proliferation assay. Conditions: 5 µM, physiological pH, 2 h treatment, MTT after 72 h, Figures 3A and 3E.

Take “I: GGEQNPIYWARYADWLFTTPLLLLELALLVDADEGTCG-NH2 / II: [Mpa][NMeV]V[Dil][Dolaproine]-X1 (disulfide I:37-II:1) [pHLIP(D25E)-MMAE]”: the “Trp fluorescence emission maximum” value in data set [1] (pH 5.0, POPC liposomes) is 329 nm; in data set [1] (pH 7.4, POPC liposomes), 347 nm. Also, in data set [2], the “disruption of the plasma membrane (trypan blue uptake)” value is given as “neither conjugates, nor low pH treatment, caused disruption of the membranes”. Also, in data set [3], the “pH-dependent secondary structure transition (CD)” value is given as “transition from an unstructured conformation to an α-helix”. The “cell killing at 1.25 µM (percentage as printed)” value in data set [4] is given as 49%.

As to amanitin, the pK of insertion in data set [5] is 5.9.

Regarding `CC[C@H](C)[C@@H]([C@@H](CC(=O)N1CCC[C@H]1[C@H](OC)[C@@H](C)C(=O)N[C@H](C)[C@@H](O)c1ccccc1)OC)N(C)C(=O)[C@@H](NC(=O)[C@@H](NC)C(C)C)C(C)C` [MMAE, monomethyl auristatin E] (H-[NMeV]V[Dil][Dolaproine]-X1), the cytotoxicity is listed as 20–30% in data set [6] and “about 70%” in data set [7].

The values are drawn from article PMC4476257 (Molecular pharmaceutics, 2015).
